Experimental data published in patent US20220073611A1.

Target: NR1 ATD fusion protein on 293T-ATD cells (human)
Experiment: flow cytometry on 293T-ATD cells, co-stained with commercial anti-NR1 mAb

Chain of NR1 ATD fusion protein on 293T-ATD cells (human) (chain, as listed by the source limits assumed): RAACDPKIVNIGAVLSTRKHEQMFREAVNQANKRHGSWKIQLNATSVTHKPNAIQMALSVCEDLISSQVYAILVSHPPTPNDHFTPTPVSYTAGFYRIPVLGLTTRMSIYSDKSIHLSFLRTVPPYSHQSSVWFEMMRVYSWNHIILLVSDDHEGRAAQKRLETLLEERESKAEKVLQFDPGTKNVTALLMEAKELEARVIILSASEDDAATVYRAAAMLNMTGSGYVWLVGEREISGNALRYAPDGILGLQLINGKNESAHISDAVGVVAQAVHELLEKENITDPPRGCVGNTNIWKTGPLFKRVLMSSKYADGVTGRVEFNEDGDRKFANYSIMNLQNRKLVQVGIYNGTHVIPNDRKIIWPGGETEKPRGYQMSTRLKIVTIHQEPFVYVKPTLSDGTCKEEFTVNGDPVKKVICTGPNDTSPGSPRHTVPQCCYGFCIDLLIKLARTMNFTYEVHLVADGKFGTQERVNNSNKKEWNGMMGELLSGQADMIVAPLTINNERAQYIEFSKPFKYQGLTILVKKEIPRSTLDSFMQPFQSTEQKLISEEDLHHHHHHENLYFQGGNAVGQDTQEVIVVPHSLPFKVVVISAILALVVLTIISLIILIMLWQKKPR

Substance 6A isotype control human mAb (antibody) has a Percent GluN1 positive 293T-ATD cells bound of 18% and a double positive cells of 12.4%.
